Data reported in patent publication US20130005646A1 (Novo Nordisk, published 2013).
Starred links: 1 amine or outer side, 2 acyl side, 3 side chain; linkers in the order of their positions; H or OH if unused. Positions of bridges follow the written chain, without caps; N, C: chain ends. *: point of attachment. C20 diacid = O=C(O)CCCCCCCCCCCCCCCCCCC(=O)*; γGlu = O=C(O)[C@H](CCC(=O)[*:2])N[*:1]

T1: human calcitonin (a) receptor (human, UniProt P30988 25-474)
T1 sequence (looked up): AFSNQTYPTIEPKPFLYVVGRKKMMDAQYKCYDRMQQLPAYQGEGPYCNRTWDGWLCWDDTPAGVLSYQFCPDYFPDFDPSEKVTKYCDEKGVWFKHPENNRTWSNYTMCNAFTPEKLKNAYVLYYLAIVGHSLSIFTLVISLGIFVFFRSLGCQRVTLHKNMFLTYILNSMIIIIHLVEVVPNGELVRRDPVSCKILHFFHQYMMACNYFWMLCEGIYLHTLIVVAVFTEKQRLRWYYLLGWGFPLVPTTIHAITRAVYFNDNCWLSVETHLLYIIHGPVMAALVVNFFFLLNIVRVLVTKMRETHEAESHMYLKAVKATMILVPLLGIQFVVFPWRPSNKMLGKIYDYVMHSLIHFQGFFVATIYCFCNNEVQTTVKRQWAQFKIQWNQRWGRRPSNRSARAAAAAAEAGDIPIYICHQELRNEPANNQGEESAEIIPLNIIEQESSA

T2: human amylin 3(a) receptor (human calcitonin receptor + RAMP-3) (human, UniProt P30988 25-474; O60896 24-148)
T2 sequence (looked up) 1: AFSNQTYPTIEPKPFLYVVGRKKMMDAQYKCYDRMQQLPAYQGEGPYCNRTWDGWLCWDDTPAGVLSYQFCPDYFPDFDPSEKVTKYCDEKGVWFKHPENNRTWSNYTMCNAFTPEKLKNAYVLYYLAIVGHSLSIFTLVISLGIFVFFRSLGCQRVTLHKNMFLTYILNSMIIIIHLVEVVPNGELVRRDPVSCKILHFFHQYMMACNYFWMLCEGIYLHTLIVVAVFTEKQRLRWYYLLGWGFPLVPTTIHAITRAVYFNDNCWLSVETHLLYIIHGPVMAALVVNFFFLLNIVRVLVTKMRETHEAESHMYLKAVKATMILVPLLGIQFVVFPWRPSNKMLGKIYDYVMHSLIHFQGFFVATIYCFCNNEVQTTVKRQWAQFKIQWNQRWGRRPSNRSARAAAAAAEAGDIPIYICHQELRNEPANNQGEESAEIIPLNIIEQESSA
T2 sequence (looked up) 2: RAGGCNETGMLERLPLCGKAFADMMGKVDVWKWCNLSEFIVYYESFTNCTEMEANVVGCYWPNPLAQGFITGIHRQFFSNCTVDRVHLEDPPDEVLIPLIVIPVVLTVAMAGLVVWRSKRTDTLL


Tests used:
[1] = biological target: T1, human calcitonin (a) receptor; experiment: cell-based or functional assay
[2] = biological target: T2, human amylin 3(a) receptor (human …); experiment: cell-based or functional assay

CTa receptor human EC50 [1] [nM]	Amylin receptor human EC50 [2] [nM]	Binder
0.801	0.286	{C20 diacid-γGlu}-HHHCHTATCATQRLAEFLHHSSNNFGPILPPTNVGSNTY-NH2 (disulfide 4-9; SMILES CC[C@H](C)[C@H](NC(=O)[C@@H]1CCCN1C(=O)CNC(=O)[C@H](Cc1ccccc1)NC(=O)[C@H](CC(N)=O)NC(=O)[C@H](CC(N)=O)NC(=O)[C@H](CO)NC(=O)[C@H](CO)NC(=O)[C@H](Cc1c[nH]cn1)NC(=O)[C@H](Cc1c[nH]cn1)NC(=O)[C@H](CC(C)C)NC(=O)[C@H](Cc1ccccc1)NC(=O)[C@H](CCC(=O)O)NC(=O)[C@H](C)NC(=O)[C@H](CC(C)C)NC(=O)[C@H](CCCNC(=N)N)NC(=O)[C@H](CCC(N)=O)NC(=O)[C@@H](NC(=O)[C@H](C)NC(=O)[C@@H]1CSSC[C@H](NC(=O)[C@H](Cc2c[nH]cn2)NC(=O)[C@H](Cc2c[nH]cn2)NC(=O)[C@H](Cc2c[nH]cn2)NC(=O)CC[C@H](NC(=O)CCCCCCCCCCCCCCCCCCC(=O)O)C(=O)O)C(=O)N[C@@H](Cc2c[nH]cn2)C(=O)N[C@@H]([C@@H](C)O)C(=O)N[C@@H](C)C(=O)N[C@@H]([C@@H](C)O)C(=O)N1)[C@@H](C)O)C(=O)N[C@@H](CC(C)C)C(=O)N1CCC[C@H]1C(=O)N1CCC[C@H]1C(=O)N[C@H](C(=O)N[C@@H](CC(N)=O)C(=O)N[C@H](C(=O)NCC(=O)N[C@@H](CO)C(=O)N[C@@H](CC(N)=O)C(=O)N[C@H](C(=O)N[C@@H](Cc1ccc(O)cc1)C(N)=O)[C@@H](C)O)C(C)C)[C@@H](C)O)
0.191	0.167	{C20 diacid-γGlu}-HHHCNTATCATQRLAEFLHHSSNNFGPILPHTNVGSNTY-NH2 (disulfide 4-9; SMILES CC[C@H](C)[C@H](NC(=O)[C@@H]1CCCN1C(=O)CNC(=O)[C@H](Cc1ccccc1)NC(=O)[C@H](CC(N)=O)NC(=O)[C@H](CC(N)=O)NC(=O)[C@H](CO)NC(=O)[C@H](CO)NC(=O)[C@H](Cc1c[nH]cn1)NC(=O)[C@H](Cc1c[nH]cn1)NC(=O)[C@H](CC(C)C)NC(=O)[C@H](Cc1ccccc1)NC(=O)[C@H](CCC(=O)O)NC(=O)[C@H](C)NC(=O)[C@H](CC(C)C)NC(=O)[C@H](CCCNC(=N)N)NC(=O)[C@H](CCC(N)=O)NC(=O)[C@@H](NC(=O)[C@H](C)NC(=O)[C@@H]1CSSC[C@H](NC(=O)[C@H](Cc2c[nH]cn2)NC(=O)[C@H](Cc2c[nH]cn2)NC(=O)[C@H](Cc2c[nH]cn2)NC(=O)CC[C@H](NC(=O)CCCCCCCCCCCCCCCCCCC(=O)O)C(=O)O)C(=O)N[C@@H](CC(N)=O)C(=O)N[C@@H]([C@@H](C)O)C(=O)N[C@@H](C)C(=O)N[C@@H]([C@@H](C)O)C(=O)N1)[C@@H](C)O)C(=O)N[C@@H](CC(C)C)C(=O)N1CCC[C@H]1C(=O)N[C@@H](Cc1c[nH]cn1)C(=O)N[C@H](C(=O)N[C@@H](CC(N)=O)C(=O)N[C@H](C(=O)NCC(=O)N[C@@H](CO)C(=O)N[C@@H](CC(N)=O)C(=O)N[C@H](C(=O)N[C@@H](Cc1ccc(O)cc1)C(N)=O)[C@@H](C)O)C(C)C)[C@@H](C)O)
